Test results published in article PMC8488193, “Characterization of a Novel Glutamine Synthetase From Trichinella spiralis and Its Participation in Larval Acid Resistance, Molting, and Development” (Frontiers in Cell and Developmental Biology, 2021).

Columns and labels:
rTsGS = biological target: T1, rTsGS (Trichinella spiralis, UniProt A0ABR3KY69); experiment: phosphate release, absorbance at […] nm, with inhibitor; type: biochemical; conditions: substrates Glu, ATP, NH4+
T1 construct: gene TSPI_06310
T1 sequence (A0ABR3KY69 1-365): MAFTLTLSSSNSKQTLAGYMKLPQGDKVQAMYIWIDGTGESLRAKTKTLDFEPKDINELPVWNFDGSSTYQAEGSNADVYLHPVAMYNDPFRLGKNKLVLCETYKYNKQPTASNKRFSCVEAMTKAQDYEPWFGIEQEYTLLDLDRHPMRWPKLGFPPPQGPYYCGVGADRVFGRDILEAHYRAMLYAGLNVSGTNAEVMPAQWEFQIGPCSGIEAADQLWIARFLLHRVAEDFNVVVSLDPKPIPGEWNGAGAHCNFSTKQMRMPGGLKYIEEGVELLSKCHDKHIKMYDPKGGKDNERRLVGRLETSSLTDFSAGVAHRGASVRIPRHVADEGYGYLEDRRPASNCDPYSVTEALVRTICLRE

N = experiment: purified protein; conditions: pH 7.0, 45 °C, 100 mM Mg2+, glutamate and ATP as co-substrates, range 0.5-5 mM
N[C@@H](CCC(=O)O)C(=O)O = experiment: purified protein; type: biochemical, Trichinella spiralis; conditions: pH 7.0, 45 °C, 100 mM Mg2+, ATP and NH4+ as co-substrates, range 0.5-5 mM

Compound	inhibition at 10% glufosinate (rTsGS)	Km (N) [µM]	Km (N[C@@H](CCC(=O)O)C(=O)O) [µM]
CP(=O)(O)CCC(N)C(=O)O (stereo not drawn) [glufosinate]	Both EDTA and glufosinate could inhibit the rTsGS enzyme activity	–	–
rTsGS (Trichinella spiralis)	–	170	200
